Earlier results in patent US20260159592A1, “COMPOSITIONS AND METHODS FOR TARGETING AND KILLING ALPHA-V BETA-3 -POSITIVE CANCER STEM CELLS (CSCS) AND TREATING DRUG RESISTANT AND METASTATIC CANCERS” (The Regents of the University of California, priority 2019, published 2026).

Assays:
αvβ3 [1] = target: T1, αvβ3 (Homo sapiens, UniProt P05106+P06756); conditions: Choi et al. (1994); Jones et al. (1996)
αvβ3 [2] = target: T1, αvβ3; conditions: Brooks et al. Cell 79:1157-1164 (1994)
M21 cells = conditions: ligands such as vitronectin, fibrinogen and von Willebrand factor; Cheresh and Spiro
αvβ3 [3] = target: T1, αvβ3; conditions: Clark et al., Am. J. Pathology 148:1407-1421 (1996)

T1 sequence (P06756 31-889 limits assumed): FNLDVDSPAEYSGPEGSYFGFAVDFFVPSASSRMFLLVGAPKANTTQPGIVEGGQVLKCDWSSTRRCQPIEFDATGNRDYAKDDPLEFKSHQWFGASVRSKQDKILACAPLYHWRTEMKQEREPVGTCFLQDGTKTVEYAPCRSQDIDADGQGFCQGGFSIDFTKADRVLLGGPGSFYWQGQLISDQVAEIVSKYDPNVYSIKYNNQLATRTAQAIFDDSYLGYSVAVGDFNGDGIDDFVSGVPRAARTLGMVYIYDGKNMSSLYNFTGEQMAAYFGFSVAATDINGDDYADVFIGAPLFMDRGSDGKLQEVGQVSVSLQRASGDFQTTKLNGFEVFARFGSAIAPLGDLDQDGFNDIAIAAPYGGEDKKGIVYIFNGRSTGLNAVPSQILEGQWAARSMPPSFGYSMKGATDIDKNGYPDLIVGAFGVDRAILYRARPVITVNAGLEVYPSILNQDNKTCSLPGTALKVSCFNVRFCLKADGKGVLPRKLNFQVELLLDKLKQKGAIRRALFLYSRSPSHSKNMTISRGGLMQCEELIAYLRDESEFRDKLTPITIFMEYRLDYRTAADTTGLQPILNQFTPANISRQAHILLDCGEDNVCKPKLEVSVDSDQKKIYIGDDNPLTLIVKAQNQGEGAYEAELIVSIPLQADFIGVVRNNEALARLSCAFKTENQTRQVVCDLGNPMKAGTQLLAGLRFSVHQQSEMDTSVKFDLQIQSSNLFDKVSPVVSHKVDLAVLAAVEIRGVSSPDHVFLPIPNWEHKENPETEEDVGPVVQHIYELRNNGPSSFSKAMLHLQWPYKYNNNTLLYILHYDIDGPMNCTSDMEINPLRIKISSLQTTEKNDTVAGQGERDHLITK
T1 sequence (P06756 891-1048 limits assumed): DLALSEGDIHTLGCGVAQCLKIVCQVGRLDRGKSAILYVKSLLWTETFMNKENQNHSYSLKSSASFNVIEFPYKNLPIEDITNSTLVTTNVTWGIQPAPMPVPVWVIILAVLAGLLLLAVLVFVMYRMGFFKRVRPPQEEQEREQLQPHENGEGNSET
T1 sequence (P05106 27-788): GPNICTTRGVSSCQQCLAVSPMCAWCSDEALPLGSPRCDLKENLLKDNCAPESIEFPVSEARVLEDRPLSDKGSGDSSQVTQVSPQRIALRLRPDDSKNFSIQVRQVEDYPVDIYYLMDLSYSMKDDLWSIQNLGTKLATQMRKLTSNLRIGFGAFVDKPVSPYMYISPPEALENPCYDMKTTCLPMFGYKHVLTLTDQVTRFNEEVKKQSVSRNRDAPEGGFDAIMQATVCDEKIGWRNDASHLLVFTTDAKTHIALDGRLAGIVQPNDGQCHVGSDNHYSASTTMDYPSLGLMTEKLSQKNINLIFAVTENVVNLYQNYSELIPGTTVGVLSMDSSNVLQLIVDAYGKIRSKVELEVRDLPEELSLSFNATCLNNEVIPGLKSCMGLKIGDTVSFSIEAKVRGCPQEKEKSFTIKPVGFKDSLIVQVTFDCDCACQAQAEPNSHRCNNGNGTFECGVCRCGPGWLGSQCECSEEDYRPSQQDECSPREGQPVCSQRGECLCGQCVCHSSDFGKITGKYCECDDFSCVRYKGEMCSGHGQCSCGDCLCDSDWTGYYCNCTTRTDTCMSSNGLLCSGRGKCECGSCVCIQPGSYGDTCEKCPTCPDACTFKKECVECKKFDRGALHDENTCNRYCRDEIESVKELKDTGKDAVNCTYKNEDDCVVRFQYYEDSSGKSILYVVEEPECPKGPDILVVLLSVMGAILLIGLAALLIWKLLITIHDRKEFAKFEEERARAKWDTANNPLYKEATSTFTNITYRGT

smooth muscle cell migration such as that occurring during restenosis (αvβ3 [1]): inhibitor
tumor induced angiogenesis (αvβ3 [2]): inhibitor
granulation tissue development in cutaneous wound (αvβ3 [3]): inhibitor
B1: LM609: murine monoclonal antibody specific for the integrin αvβ3 (antibody, V domains shown)
VH: EVQLVESGGGLVKPGRSLRLSCAASGFAFSSYDMSWVRQIPEKRLEWVAKVSSGGGSTYYLDTVQGRFTISRDNAKNTLYLQMSSLNSEDTAMYYCARHNYGSFAYWGQGTLVTVSA
VL: DIVLTQSPATLSVTPGDSVSLSCQASQSISNHLHWYQQKSHESPRLLIKYRSQSISGIPSRFSGSGSGTDFALSINSVETEDFGMYFCQQSGSWPHTFGGGTKLEIK
attachment of M21 cells to αvβ ligands (M21 cells): inhibits
